# Measured values reported in article PMC9077843.
# B1: B3GNT5 (β1,3-N-acetylglucosaminyltransferase V): 4NQ (protein)
# parent chain: MRMLVSGRRVKKWQLIIQLFATCFLASLMFFWEPIDNHIVSHMKSYSYRYLINSYDFVNDTLSLKHTSAGPRYQYLINHKEKCQAQDVLLLLFVKTAPENYDRRSGIRRTWGNENYVRSQLNANIKTLFALGTPNPLEGEELQRKLAWEDQRYNDIIQQDFVDSFYNLTLKLLMQFSWANTYCPHAKFLMTADDDIFIHMPNLIEYLQSLEQIGVQDFWIGRVHRGAPPIRDKSSKYYVSYEMYQWPAYPDYTAGAAYVISGDVAAKVYEASQTLNSSLYIDDVFMGLCANKIGIVPQDHVFFSGEGKTPYHPCIYEKMMTSHGHLEDLQDLWKNATDPKVKTISKGFFGQIYCRLMKIILLCKISYVDTYPCRAAFI
# B2: B3GNT5 (β1,3-N-acetylglucosaminyltransferase V): tunicamycin (TM, 2.5 μg/mL, 24 h) (protein)
# parent chain: B1 parent chain
# How the values were obtained:
# [1] = Western blot, HEK293T; details: glycan lost; control: B3GNT5-WT-Flag
# [2] = Western blot, MDA-MB231 and BT549, B3GNT5-WT-mcherry; details: glycan lost; control: untreated
Protein,expression_or_secretion [1],expression_or_secretion [2]
B1,decreases,–
B2,–,decreases
